Data on 7 sequences can be found in a protein production outcome set (Wang et al. 2014).

A short description of the series: label from the status in PepcDB records.

For the sequence “MQNCATGMQMDWISLLKAQQADFLLRVKKPKTYDLSLLESQVKGCHSEIMAFWGEPFAKIQEVSRRQAEILAKNPPPIPPEYPEPPDWTIPFPIHFQQQAEDYFLREQIVDRLIVERLGKLLKKLPQDTVKNMVLDDEGNLRGESKFTYLLADNPKISVQVYVADGESFNGIKKDKIKWSVTQEDLKNHQVLIFLCLFYPSTGKLGYEKQAVVAGFLPTSHIAVTEPKLYFTPSHLLYAGGLSWYLESLTAKKEAKLDFLPVVIERTIPETIQTVPSEHPRKEIIGDWECWQTLRGHMRGINCLSFSSGCENGLPMLASGSRGETKLWDLNQGELIDTLSEYPWIVSGLVDEVNSLAFSADGQMLVSGGADSTIKIWHTGALDLIDILHKHNGIVRCAAFTPDGQMLATGGDDRRILFWDLMHRQVKAILSLDDTAAHSLVLSRDGQTLVTGSYRKIKVWQTSGSWFGKNLKDAQPLHTLMGHGHIVRSLAMSKDGQLLISGSWDQTIKIWHLATGRLIRTLKGHTDKVYAIALSPDEQIIASGSSDQTIKLWHLETGELLATFTGHTDIVTALTFTTSGEMLVSGSLDKTIKLWQRS”, the protein production entry was “failed”. Then “MQNLSLQKALKKPEVKTLLQQLGDSLGKNFAIFDIGGHCLWGKAQDSQPKVDIYCHQVLMGTITGEFTEHSAEAIAAMLSYIVQTEYEKKQLAKDTLQKYEEVVFLSQFANAVATCTGLQELIEVIRAEIRQVISVDEIFLYLYDQSQDSLTPLLYKTEESLQNFKAIEKIVERVLKLNQVEVIDDIQNDQDYLNQPSKIRSLLCYSLTVQNSIIGVLGLAHYQVKHFDSSDLNLFSTLTGQVAAAIRTAQYYETIKNYSQTLEIRVKERTMELEFAKQQLEQVNQRLKHLAIYDELTQIPNRRYFTSYLEQEWRQCLRQKSPISLILCDVDYFKNYNDLYGHQMGDKCLQSVAKVIQNALKRPSDVLARYGGEEFIVILPYTDQSGAYTVGQRIHHCLAEAQISHADSPTSRYLTISLGIGTTVPLLHYHPSDLIKIADQALYAAKAAGRNQTKLKTLSFQCS”, with “failed”; and “MQNRWAETKFDSDIDEVVYGSRLIGSDPDLVLHGGGNTSVKTTERDHAGRIISVLRVKNSGSNLGTIDSRGFTGIRMDDALAAAKIDKMTDEAMVDYLKKSMVNPSEPSPSVETFLHAFLPYKFVMHSHADAILSITNTDLPSDQIAKILGNVVVLPYIPPGFTLAKEVMNCFKKGIDGIVLRKHGLLTFGDTGKEAYDRHINIVSRAENFIREKTDGK”, with “not failed”. With “MQNSFLPLNTRRFRQRAQVETPDTVYWDRLAKPELLKEHNTIDYLDFSPSDPDNFVVTCSVRVQIYNLVTMLVVKNLSRFQKTAYGATFRQDGRLLAAGDEEGHVKLFDTTSRNILRLFKGHTAPVHRTFFTADKLQLASFGDDKSVRLWDVANEKVVQTYEDTHTDYVRAGAMHPQAGHMFVSGGYDGKIKLYDTRAETAVQRTLDHGAPVESMLFLPNGSIFVSAGGSQVRVWDLISGCRLLTMMSQHHKTVTCLRLGSDGRRLLSGGLDRHVKIYDVSTYKTVHTLTYPNAVVSMAVADGDQAVVAGMVDGLVSIRRMMVDSKPSHLKKIRADRARKYFVSTKRTNNTQEVDHTIKDHVKGPGLKSYDVHLRQFNHKKALDDVMNAQKMQYQPELIVAVITDLLHRGSLGKALTGRHEAALVRFIDFICNHLGEVRFMRPLMMAASTVLDVFEQRLVAYSQKLMKALQRLSLAMQEEVRLTAELMRMKGAVDMLIGISMDNSEVAHKPTYVETKTPKMHPSVAAQNYVVLVE” the entry was “failed”; with “MQNTTHDNVILELTVRNHPGVMTHVCGLFARRAFNVEGILCLPIQDSDKSHIWLLVNDDQRLEQMISQIDKLEDVVKVQRNQSDPTMFNKIAVFFQ”, “failed”; with “MQPELTKTPANFPLSPLGAVVILGDIPNPELLAIPLAPTPSTMFGPRGACLVAETGALWVSDTGHHRLLGWRKLPTTDSQPADWVIGQPDFYHEGQNAKGTPGRTTVSVPTGICVCGGGLAIADAWNHRVLIWHKIPEDSNVPADLVLGQRNFSENEPNRGKQSPDANTMHWPYGVAYHQGKLFVADTGNRRLLIWQQLPTENGQPADIVLGQPDMISRNENGGGSPTAGSMRWCHDIAFWDDNLVVTDAGNNRVMIWQGIPTENNAPCAVVLGQKSFDLVEMNQGVYFPSAGSLSMPYGVGATEDWLMVADTANSRLLGWRKRESILLLQGAIADGIIGQNSFQSKSENRHFGLPTRDSLNWCYGVKVCGSTAVISDSGNNRVLLWRFLLEHHHHHH”, “failed”.

Take “MQPFYIKKGRGSVIYSSVRKDLPPFHLFQMGKYSVVEDFSCLNNAVGDIVIGDYCRIGLGNTVIGPIRIDNGVNISQNVVLIGLDHNYQDITQGIIEQGITTSPIHIGEHTIIGANVIVLPGITIGKHCFIGAGCVVTQNIPDYCVTVGNPARIIKRYNPQSQTWEKILEHHHHHH”: the protein production result is recorded as “failed”.
